The target in assay [1] is fibronectin from human plasma (human). The assay can be described thus: single-molecule force spectroscopy.
Assay [2] addresses salivary agglutinin (SAG) glycoprotein complex (UniProt Q9UGM3). The assay is described as follows: single-cell force spectroscopy.
For assay [3] the target is unchanged. The assay can be described thus: single-molecule force spectroscopy.

Chain of UniProt Q9UGM3 (Q9UGM3 whole entry, looked up, one chain of several): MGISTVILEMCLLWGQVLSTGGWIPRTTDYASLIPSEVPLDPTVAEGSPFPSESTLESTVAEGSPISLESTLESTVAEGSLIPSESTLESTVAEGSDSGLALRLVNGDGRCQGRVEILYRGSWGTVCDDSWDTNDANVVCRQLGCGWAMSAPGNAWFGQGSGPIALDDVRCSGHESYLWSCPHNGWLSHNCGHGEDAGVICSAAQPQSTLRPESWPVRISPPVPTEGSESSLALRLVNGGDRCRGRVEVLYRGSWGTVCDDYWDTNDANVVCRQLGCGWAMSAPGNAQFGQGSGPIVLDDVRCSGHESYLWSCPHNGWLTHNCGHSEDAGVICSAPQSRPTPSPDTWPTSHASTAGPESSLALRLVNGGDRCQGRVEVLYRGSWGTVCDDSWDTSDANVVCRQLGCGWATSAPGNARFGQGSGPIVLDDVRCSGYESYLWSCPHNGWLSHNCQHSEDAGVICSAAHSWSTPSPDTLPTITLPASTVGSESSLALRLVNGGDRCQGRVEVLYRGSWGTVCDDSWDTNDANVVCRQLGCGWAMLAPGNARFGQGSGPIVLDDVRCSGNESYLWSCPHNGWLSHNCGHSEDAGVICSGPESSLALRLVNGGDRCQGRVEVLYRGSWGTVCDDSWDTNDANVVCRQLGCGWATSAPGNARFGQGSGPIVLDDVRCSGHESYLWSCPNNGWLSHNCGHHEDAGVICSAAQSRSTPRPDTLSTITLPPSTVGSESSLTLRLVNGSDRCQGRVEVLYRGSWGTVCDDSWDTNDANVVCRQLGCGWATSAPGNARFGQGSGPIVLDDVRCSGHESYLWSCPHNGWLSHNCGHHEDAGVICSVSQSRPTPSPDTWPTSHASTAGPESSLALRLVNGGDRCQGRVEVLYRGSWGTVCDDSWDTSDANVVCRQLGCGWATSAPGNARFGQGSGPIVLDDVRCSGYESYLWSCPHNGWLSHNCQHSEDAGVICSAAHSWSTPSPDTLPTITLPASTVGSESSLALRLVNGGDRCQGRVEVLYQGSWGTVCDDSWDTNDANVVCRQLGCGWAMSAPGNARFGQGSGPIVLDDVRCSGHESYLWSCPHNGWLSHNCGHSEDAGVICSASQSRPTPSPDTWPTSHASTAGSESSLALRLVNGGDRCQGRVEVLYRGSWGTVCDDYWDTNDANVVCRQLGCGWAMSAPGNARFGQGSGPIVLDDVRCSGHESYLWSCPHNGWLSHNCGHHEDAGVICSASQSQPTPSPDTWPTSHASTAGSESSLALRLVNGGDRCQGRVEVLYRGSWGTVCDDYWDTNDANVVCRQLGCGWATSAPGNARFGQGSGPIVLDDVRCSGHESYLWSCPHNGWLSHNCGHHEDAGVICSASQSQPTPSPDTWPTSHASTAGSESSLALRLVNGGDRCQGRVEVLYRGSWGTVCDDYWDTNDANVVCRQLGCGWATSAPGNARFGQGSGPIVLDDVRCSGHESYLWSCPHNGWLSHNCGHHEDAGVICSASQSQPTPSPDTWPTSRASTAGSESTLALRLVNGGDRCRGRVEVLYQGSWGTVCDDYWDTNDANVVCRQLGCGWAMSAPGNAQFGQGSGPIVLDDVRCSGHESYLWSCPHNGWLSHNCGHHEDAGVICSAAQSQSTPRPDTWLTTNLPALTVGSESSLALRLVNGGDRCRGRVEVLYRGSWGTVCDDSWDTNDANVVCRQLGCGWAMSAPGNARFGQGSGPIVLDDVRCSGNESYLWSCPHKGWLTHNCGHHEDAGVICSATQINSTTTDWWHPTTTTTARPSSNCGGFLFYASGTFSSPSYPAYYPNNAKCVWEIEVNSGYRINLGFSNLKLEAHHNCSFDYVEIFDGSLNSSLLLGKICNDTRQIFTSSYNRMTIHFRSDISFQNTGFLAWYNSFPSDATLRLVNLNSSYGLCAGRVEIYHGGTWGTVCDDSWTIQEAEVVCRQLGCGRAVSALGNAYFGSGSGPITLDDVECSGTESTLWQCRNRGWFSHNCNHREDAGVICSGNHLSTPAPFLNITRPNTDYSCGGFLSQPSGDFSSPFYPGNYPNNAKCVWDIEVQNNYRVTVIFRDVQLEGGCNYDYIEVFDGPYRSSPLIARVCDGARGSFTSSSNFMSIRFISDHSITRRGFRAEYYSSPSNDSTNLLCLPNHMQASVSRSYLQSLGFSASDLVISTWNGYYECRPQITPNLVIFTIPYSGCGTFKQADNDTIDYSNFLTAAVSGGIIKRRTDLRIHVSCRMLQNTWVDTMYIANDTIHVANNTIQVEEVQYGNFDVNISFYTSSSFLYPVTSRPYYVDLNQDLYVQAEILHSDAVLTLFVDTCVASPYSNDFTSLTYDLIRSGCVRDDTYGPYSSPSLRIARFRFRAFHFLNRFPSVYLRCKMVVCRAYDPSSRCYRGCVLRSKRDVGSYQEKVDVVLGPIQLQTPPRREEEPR

Substance “P1 globular head fragment (A3VP1) (domain or fragment)” yielded a binding frequency in assay [1] of 49%.

For the substance “cell surface-localized P1 on living Streptococcus mutans NG8 cells (from UniProt P23504 39-1532) (natural protein)”, in assay [2], the adhesion force is 100 to 1500 pN.

The substance “full-length P1 adhesin of Streptococcus mutans (from UniProt P23504 39-1532) (natural protein)” had a most probable adhesion force in assay [3] of 57 pN. This substance also showed a mean adhesion force in assay [1] of 46 pN.

These data come from PMC4369792.
